Reference: paper PMC12101500, “Mechanism of D-type cyclin recognition by the AMBRA1 E3 ligase receptor” (Science Advances, 2025)
Blank lines part the entries; values can stand above or below the molecule they belong to. Where no end group is shown, it is not given here. [ ]: non-standard residue; d: D form. pT = C[C@@H](OP(=O)(O)O)[C@H](N)C(=O)O

What was measured:
[1] = target: DDB1-AMBRA1^WD40 complex (human) (UniProt Q9C0C7); test: ITC; peptide (100 μM) titrated into AMBRA1^WD40-DDB1 complex (10 μM); 25°C; 50 mM Hepes pH 7.4, 200 mM NaCl, 2 mM MgCl2, 1 mM TCEP; single-site binding model
[2] = target: DDB1-AMBRA1 WD40 (Homo sapiens, UniProt Q16531); test: ITC
[3] = target: T1, TSF–cyclin D1 (full-length) (human, UniProt P24385 1-295, phosphothreonine at 286 (found in the reconstituted complex by Western blotting and MS)); test: cryo-EM structure; DDB1–AMBRA1^WD40–cyclin D1–CDK4EE complex co-expressed in Expi293F and purified (MBP beads, TEV, Strep-tactin, Superdex 200); 0.3 mg/ml; 3.55 Å; details: both partners purified
T1 construct: cyclin D1, human; also called Twin-Strep-FLAG–cyclin D1; source: Expi293F, co-transfected; in lysate (pull-downs) and purified in complexes (MBP or GST beads, TEV digestion, Strep-tactin, Superdex 200); not shown: Twin-Strep-FLAG (TSF), N-terminal, kept
T1 sequence (P24385 whole entry): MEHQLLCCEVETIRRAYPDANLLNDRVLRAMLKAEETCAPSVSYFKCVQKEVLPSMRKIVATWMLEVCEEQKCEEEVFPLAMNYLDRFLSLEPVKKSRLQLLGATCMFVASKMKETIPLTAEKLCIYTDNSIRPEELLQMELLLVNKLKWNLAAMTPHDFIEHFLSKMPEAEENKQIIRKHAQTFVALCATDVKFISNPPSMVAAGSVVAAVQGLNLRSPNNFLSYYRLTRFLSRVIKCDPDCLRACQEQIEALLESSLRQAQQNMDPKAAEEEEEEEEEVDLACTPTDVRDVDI

Kd [1]: 210 nM
Molecule: T286-phosphorylated cyclin D1 peptide (residues 284 to 295)

Kd [2]: ~200 nM
Molecule: Ac-AC[pT]PTDVRDVDI [cyclin D1 284-295]

binding result [3]: binds
B1: AMBRA1^WD40 (residues M1 to N204 directly fused to S853 to G1044), MBP removed (domain or fragment, human, UniProt Q9C0C7 1-204, looked up)
chain: MKVVPEKNAVRILWGRERGARAMGAQRLLQELVEDKTRWMKWEGKRVELPDSPRSTFLLAFSPDRTLLASTHVNHNIYITEVKTGKCVHSLIGHRRTPWCVTFHPTISGLIASGCLDGEVRIWDLHGGSESWFTDSNNAIASLAFHPTAQLLLIATANEIHFWDWSRREPFAVVKTASEMERVRLVRFDPLGHYLLTAIVNPSNSNIANTTYRLQWWDFTKFDLPEISNASVNVLVQNCKIYNDASCDISADGQLLAAFIPSSQRGFPDEGILAVYSLAPHNLGEMLYTKRFGPNAISVSLSPMGRYVMVGLASRRILLHPSTEHMVAQVFRLQQAHGGETSMRRVFNVLYPMPADQRRHVSINSARWLPEPGLGLAYGTNKGDLVICRPEALNSG
notes: AMBRA1, human, residues M1 to N204, directly fused to S853; AMBRA1, human, residues S853 to G1044; Same construct as m5, after TEV digestion; the gene was codon optimized; also called AMBRA1 WD40 domain; AMBRA1^WD40 WT; source: Expi293F, co-expressed, purified in complex (MBP beads, TEV digestion, Strep-tactin and/or Superdex 200); not shown: MBP, N-terminal, cleaved
